Assay results reported in patent publication US20140079717A1, “Compositions and Methods to Prevent Cell Transformation and Cancer Metastasis” (CORNELL UNIVERSITY, priority 2011, published 2014).

Test: In vitro liposome fractionation assay
Type: binding
Details: 5 μg protein, 15 minute incubation, centrifugation, SDS-PAGE
Description: FIG. 51. Recombinant tTG can associate with lipid vesicles lacking any protein content. Synthetic liposomes were prepared by extrusion and then equal amounts of this preparation were combined with either 5 μg recombinant tTG (tTG WT) or 5 μg bovine serum albumin (BSA). After a 15 minute incubation, the liposomes were pelleted by centrifugation, and the resulting supernatant (Sup) and liposome (Pellet) fractions were resolved by SDS-PAGE. The gel was then stained with Quick Blue to detect the proteins. A lane containing recombinant tTG (Rec. tTG WT) was included as a standard.
To obtain the results depicted in FIG. 51, the following procedures were used. In vitro liposome fractionation assays—Synthetic liposomes were prepared from a lipid mixture containing 35% phosphatidylethanolamine, 25% phosphatidylserine, 5% phosphatidylinositol, and 35% cholesterol re-suspended in TBSM buffer (20 mM Tris, pH 7.5, 150 mM NaCl, and 2 mM MgCl2). The lipids were extruded through an 8 micron filter, pelleted by centrifugation at 13,000 rpm for 15 minutes, and re-suspended in TBSM buffer. Equal amounts of the lipid preparation were then incubated with either recombinant wild-type tTG or BSA for 15 minutes, followed by centrifugation at 13,000 rpm for 10 minutes at room temperature. […]

B1: tTG WT: purified recombinant wild-type tissue transglutaminase (protein, UniProt P21980 2-687, looked up)
Protein-glutamine …: AEELVLERCDLELETNGRDHHTADLCREKLVVRRGQPFWLTLHFEGRNYEASVDSLTFSVVTGPAPSQEAGTKARFPLRDAVEEGDWTATVVDQQDCTLSLQLTTPANAPIGLYRLSLEASTGYQGSSFVLGHFILLFNAWCPADAVYLDSEEERQEYVLTQQGFIYQGSAKFIKNIPWNFGQFEDGILDICLILLDVNPKFLKNAGRDCSRRSSPVYVGRVVSGMVNCNDDQGVLLGRWDNNYGDGVSPMSWIGSVDILRRWKNHGCQRVKYGQCWVFAAVACTVLRCLGIPTRVVTNYNSAHDQNSNLLIEYFRNEFGEIQGDKSEMIWNFHCWVESWMTRPDLQPGYEGWQALDPTPQEKSEGTYCCGPVPVRAIKEGDLSTKYDAPFVFAEVNADVVDWIQQDDGSVHKSINRSLIVGLKISTKSVGRDEREDITHTYKYPEGSSEEREAFTRANHLNKLAEKEETGMAMRIRVGQSMNMGSDFDVFAHITNNTAEEYVCRLLLCARTVSYNGILGPECGTKYLLNLNLEPFSEKSVPLCILYEKYRDCLTESNLIKVRALLVEPVINSYLLAERDLYLENPEIKIRILGEPKQKRKLVAEVSLQNPLPVALEGCTFTVEGAGLTEEQKTVEIPDPVEAGEEVKVRMDLLPLHMGLHKLVVNFESDKLKAVKGFRNVIIGPA
- protein pelleted with synthetic liposomes: nearly all
